According to patent US20240052006A1 (UNIVERSITY OF CHICAGO, published 2024):

Target: T1, mouse plasma-derived SA (mouse SA, Sigma-Aldrich) (mouse, UniProt P07724 25-608)
T1 construct: The SA in the SPR assay was bought (Sigma-Aldrich, plasma-derived, without IL-4); It is not tied to the bought lot by name; also called mouse serum albumin; MSA
Experiment: SPR (Biacore X100): murine FcRn immobilised by amine coupling on a C1 chip, mouse SA flowed at 4000 to 250 nM in pH 5.8 running buffer; Langmuir fit
Procedure: Murine FcRn recombinant protein (Acro Biosystems) was immobilized via amine coupling on a C1 chip (GE Healthcare) for ˜200 resonance units (RU) according to the manufacturer's instructions. SA-IL4 or SA (mouse SA, Sigma-Aldrich) was flowed at decreasing concentrations in the running buffer (0.01 M monobasic anhydrous sodium phosphate, pH 5.8, 0.15 M NaCl) at 30 μl/min. The sensor chip was regenerated with PBS, pH 7.4 for every cycle. Specific bindings of SA fusion proteins to FcRn were calculated by comparison to a non-functionalized channel used as a reference. Experimental results were fitted with Langmuir binding kinetics using BIAevaluation software (GE Healthcare).

B1: Murine FcRn recombinant protein (Acro Biosystems) (receptor, mouse)
chain 1: SETRPPLMYHLTAVSNPSTGLPSFWATGWLGPQQYLTYNSLRQEADPCGAWMWENQVSWYWEKETTDLKSKEQLFLEALKTLEKILNGTYTLQGLLGCELASDNSSVPTAVFALNGEEFMKFNPRIGNWTGEWPETEIVANLWMKQPDAARKESEFLLNSCPERLLGHLERGRRNLEWKEPPSMRLKARPGNSGSSVLTCAAFSFYPPELKFRFLRNGLASGSGNCSTGPNGDGSFHAWSLLEVKRGDEHHYQCQVEHEGLAQPLTVDLDSSARSS
chain 2: IQKTPQIQVYSRHPPENGKPNILNCYVTQFHPPHIEIQMLKNGKKIPKVEMSDMSFSKDWSFYILAHTEFTPTETDTYACRVKHASMAEPKTVYWDRDM
notes: Bought from Acro Biosystems and immobilised by amine coupling on a C1 chip; also called Recombinant mouse FcRn; neonatal Fc receptor
  Kd: 294 nM
  koff: 0.0011 s⁻¹
  kon: 3700 M⁻¹ s⁻¹
